The values below come from publication PMC4289617 (Journal of medicinal chemistry, 2010).

Read-outs that look alike come from different tables or passages of the source. Me3 = trimethyl-lysine, K(Me3) Bounds are passed on as bounds.

Assay [1] deals with T1, WDR5Δ23 (WD repeat domain 5, residues 24–334) (human, UniProt P61964 24-334). Nature of the assay: fluorescence polarisation. For orientation: In fluorescence polarisation assays a small probe gives low polarisation when free and higher when bound to something large.
Assay [2] concerns the target T1, WDR5Δ23 (WD repeat domain 5, residues …). Nature of the assay: fluorescence polarisation. The source holds these as a separate data set.

The term IC50 denotes the concentration that gives 50% inhibition. As a reminder, the Ki is the equilibrium dissociation constant of an inhibitor or competing ligand from its target. In assay [1], Ac-RAEVHLRKS-NH2 [Ac-9mer (Ac-10mer without Ala1)] came in with an IC50 of 29 µM and a Ki of 6.3 µM.

On to Ac-ARAEVHLRKS-NH2 [Ac-10mer (Ac-ARAEVHLRKS-NH2)], for which, in assay [1], the Ki is 0.003 µM.

In assay [2], H-ARTK(Me3)QTARKS-NH2 [H3-10mer-K4Me3 (H2N-ARTK(Me3)QTARKS-NH2)] returned an IC50 of 73 µM and a Ki of 15.6 µM.

In the case of Ac-ARTKQTARKS-NH2 [Ac-H3-10mer (Ac-ARTKQTARKS-NH2)], in assay [2], the Ki is < 0.001 µM.

In the case of Ac-ARAEVH-NH2 [Ac-6mer], the Ki in assay [1] is 0.09 µM.
